Experimental data: article PMC7963221 (2021)

B1: ADG-3 (antibody, V domains shown)
VH: EVQLVESGGGLIQPGGSLRLSCAASGFPFKGTYMTWVRQAPGKGLEWVSIIYSGGDTYYADSVKGRFTISRDNSKNTLFLQMNSLRVEDTAMYYCARDREMAIITERTYGLDVWGQGTMVTVSS
VL: QSVLTQPPSASGTPGQRVTISCSGGSSNIGSNSVNWYQQLPGTAPKLLIYSNSQRPSGVPDRFSGSKSGTSASLAISGLQSEDEADYYCAAWDDSLNTFRYVFGTGTKVTVL
B2: ADG-1 (antibody, V domains shown)
VH: QVQLVESGGGLVQPGGSLRLSCSASGFTFSRFAMHWVRQAPGKGLEYVSAINLNGDSKYYTDSVRGRFTISRDNSKNTLYLQMSSVRPDDTAFYYCVKDGGYYDSSGPGHWGQGTLVTVSS
VL: EIVLTQSPATLSLSPGERATLSCRASENILHYLAWYQQKPGQAPRLVIYDASRRATGIPGRFSGSGAGTDFTLTINSLEPEDFAVYYCQQRANWPQNFGGGTKVEIK
B3: ADG-2 (antibody, V domains shown)
VH: EVQLVESGGGLVKPGGSLRLSCAASGFTFSSYYMNWVRQAPGKGLEWVSSISEDGYSTYYPDSLKGRFTISRDSAKNSLYLQMNSLRADDTAVYYCARDFSGHTAWAGTGFEYWGQGTLVTVSS
VL: QSVLTQPPSVSGAPGQRITISCTGSSSNIGAGYDVHWYQQLPGTAPKLLIYGSSSRNSGVPDRFSGSKSGTSASLAITGLQAEDEADYYCQSYDSSLSVLYTFGTGTKVTVL

What was measured:
Assay in all cases: FACS
Frankfurt 1 RBD = molecular target: Frankfurt 1 RBD
Civet 007-2004 RBD = molecular target: Civet 007-2004 RBD
A021 RBD = molecular target: A021 RBD
SHC014 RBD = molecular target: SHC014 RBD
BM48-31 RBD = molecular target: BM48-31 RBD
LYRa11 RBD = molecular target: LYRa11 RBD
RaTG13 RBD = molecular target: RaTG13 RBD
CS24 RBD = molecular target: CS24 RBD
GD-Pangolin RBD = molecular target: GD-Pangolin RBD
Rs4231 RBD = molecular target: Rs4231 RBD
WIV1 RBD = molecular target: WIV1 RBD
[1] = molecular target: SARS-CoV-2 RBD (WT) displayed on the surface of yeast (SARS-CoV-2, UniProt P0DTC2)
[2] = molecular target: SARS-CoV RBD displayed on the surface of yeast (SARS-CoV, UniProt P59594)
Pangolin_GX- RBD = molecular target: Pangolin_GX- RBD

Binder	Kd (Frankfurt 1 RBD) [nM]	Kd (Civet 007-2004 RBD) [nM]	Kd (A021 RBD) [nM]	Kd (SHC014 RBD) [nM]	Kd (BM48-31 RBD) [nM]	Kd (LYRa11 RBD) [nM]	Kd (RaTG13 RBD) [nM]	Kd (CS24 RBD) [nM]	Kd (GD-Pangolin RBD) [nM]	Kd (Rs4231 RBD) [nM]	Kd (WIV1 RBD) [nM]	Kd [1] [nM]	Kd [2] [nM]	Kd (Pangolin_GX- RBD) [nM]
B1	0.96	0.9	0.91	0.93	3.09	0.92	0.88	1.05	0.68	1.07	0.72	0.55	0.91	
B2	0.97	0.78	0.95			0.79		0.97	0.87		0.68	0.73	1.09	
B3	0.38	0.35	0.47	0.33		0.47		0.45	0.24	0.4	0.42	0.43	0.39	1.12
